Source: ChEMBL document CHEMBL2074010, “Transport function and hepatocellular localization of mrp6 in rat liver” (Mol Pharmacol, 2000)

B1: ATP-binding cassette sub-family C member 2 (Rattus norvegicus) (protein)
chain: MDKFCNSTFWDLSLLESPEADLPLCFEQTVLVWIPLGFLWLLAPWQLYSVYRSRTKRSSITKFYLAKQVFVVFLLILAAIDLSLALTEDTGQATVPPVRYTNPILYLCTWLLVLAVQHSRQWCVRKNSWFLSLFWILSVLCGVFQFQTLIRALLKDSKSNMAYSYLFFVSYGFQIVLLILTAFSGPSDSTQTPSVTASFLSSITFSWYDRTVLKGYKHPLTLEDVWDIDEGFKTRSVTSKFEAAMTKDLQKARQAFQRRLQKSQRKPEATLHGLNKKQSQSQDVLVLEEAKKKSEKTTKDYPKSWLIKSLFKTFHVVILKSFILKLIHDLLVFLNPQLLKLLIGFVKSSNSYVWFGYICAILMFAVTLIQSFCLQSYFQHCFVLGMCVRTTVMSSIYKKALTLSNLARKQYTIGETVNLMSVDSQKLMDATNYMQLVWSSVIQITLSIFFLWRELGPSILAGVGVMVLLIPVNGVLATKIRNIQVQNMKNKDKRLKIMNEILSGIKILKYFAWEPSFQEQVQGIRKKELKNLLRFGQLQSLLIFILQITPILVSVVTFSVYVLVDSANVLNAEKAFTSITLFNILRFPLSMLPMVTSSILQASVSVDRLERYLGGDDLDTSAIRRVSNFDKAVKFSEASFTWDPDLEATIQDVNLDIKPGQLVAVVGTVGSGKSSLVSAMLGEMENVHGHITIQGSTAYVPQQSWIQNGTIKDNILFGSEYNEKKYQQVLKACALLPDLEILPGGDMAEIGEKGINLSGGQKQRVSLARAAYQDADIYILDDPLSAVDAHVGKHIFNKVVGPNGLLAGKTRIFVTHGIHFLPQVDEIVVLGKGTILEKGSYRDLLDKKGVFARNWKTFMKHSGPEGEATVNNDSEAEDDDDGLIPTMEEIPEDAASLAMRRENSLRRTLSRSSRSSSRRGKSLKNSLKIKNVNVLKEKEKEVEGQKLIKKEFVETGKVKFSIYLKYLQAVGWWSILFIILFYGLNNVAFIGSNLWLSAWTSDSDNLNGTNNSSSHRDMRIGVFGALGLAQGICLLISTLWSIYACRNASKALHGQLLTNILRAPMRFFDTTPTGRIVNRFSGDISTVDDLLPQTLRSWMMCFFGIAGTLVMICMATPVFAIIIIPLSILYISVQVFYVATSRQLRRLDSVTKSPIYSHFSETVTGLPIIRAFEHQQRFLAWNEKQIDINQKCVFSWITSNRWLAIRLELVGNLVVFCSALLLVIYRKTLTGDVVGFVLSNALNITQTLNWLVRMTSEAETNIVAVERISEYINVENEAPWVTDKRPPADWPRHGEIQFNNYQVRYRPELDLVLKGITCNIKSGEKVGVVGRTGAGKSSLTNCLFRILESAGGQIIIDGIDVASIGLHDLRERLTIIPQDPILFSGSLRMNLDPFNKYSDEEVWRALELAHLRSFVSGLQLGLLSEVTEGGDNLSIGQRQLLCLGRAVLRKSKILVLDEATAAVDLETDSLIQTTIRKEFSQCTVITIAHRLHTIMDSDKIMVLDNGKIVEYGSPEELLSNRGSFYLMAKEAGIENVNHTEL
B2: ATP-binding cassette sub-family C member 6 (Rattus norvegicus) (protein)
chain: MNGEHSMATPGESCAGLRVWNQTEQEPVAYHLLNLCFLRAAGSWVPPMYLWVLGPIYLLYIHRHGCCYLRMSRLFKIKMVLGFALILLYTFNAAVPLWRIHRGMPQAPELLIHPTVWLTTMSFATFLIHMERKKGVRASGLLFGYWLLCCLVPAIDTVQQASAGSFRQEPLHHLATYLCLSLVVAELVLSCLVDQPPFFSEDSKPLNPCPEAEASFPSKAMFWWASGLLWKGYRKLLGPKDLWSLERENSSEELVSQLEREWRRNFSELPGHKGHSGMGTPETEAFLQPERSQRGPLLRAIWRVFRSTFLLGTLSLVISDAFRFAVPKLLSLFLEFMGDLESSAWTGWLLAVLMFLSACLQTLFEQQYMYRVKVLQMRLRTAITGLVYRKVLVLSSGSRKSSAAGDVVNLVSVDVQRLVESILHLNGLWLLFLWIIVCFVYLWQLLGPSALTAVAVFLSLLPLNFFITKKRSFHQEEQMRQKASRARLTSSMLRTVRTIKSHGWECAFLERLLHIRGQELGALKTSAFLFSVSLVSFQVSTFLVALVVFAVHTLVAEDNAMDAEKAFVTLTVLSILNKAQAFLPFSVHCLVQARVSFDRLAAFLCLEEVDPNGMVLSPSRCSSKDRISIHNGTFAWSQESPPCLHGINLTVPQGCLLAVVGPVGAGKSSLLSALLGELLKVEGSVSIEGSVAYVPQEAWVQNTSVVENVCFRQELDLPWLQEVLEACALGSDVASFPAGVHTPVGEQGMNLSGGQKQRLSLARAVYRRAAVYLMDDPLAALDAHVSQEVFKQVIGPSGLLQGTTRILVTHTLHVLPQADQILVLANGTIAEMGSYQDLLHRNGALVGLLDGARQPAGEGEGEAHAAATSDDLGGFSGGGTPTRRPERPRPSDAAPVKGSTSEAQMEPSLDDVEVTGLTAGEDSVQYGRVKSATYLSYLRAVGTPLCTYTLFLFLCQQVASFCQGYWLSLWADDPVVDGKQMHSALRGSIFGLLGCLQAIGLFASMAAVFLGGARASCLLFRSLLWDVARSPIGFFERTPVGNLLNRFSKETDIVDVDIPDKMRTLLTYAFGLLEVGLAVSMATPLAIVAILPLMLLYAGFQSLYVATCCQLRRLESASYSSVCSHLAETFQGSQVVRAFQAQGPFTAQHDALMDENQRISFPRLVADRWLAANLELLGNGLVFVAATCAVLSKAHLSAGLAGFSVSAALQVTQTLQWVVRSWTDLENSMVAVERVQDYVHTPKEAPWRLPSSAAQPLWPCGGQIEFRDFGLRHRPELPMAVQGVSLKIHAGEKVGIVGRTGAGKSSLTWGLLRLQEATEGGIWIDGVPITDMGLHTLRSRITIIPQDPVLFPGSLRMNLDLLQENTDEGIWAALETVQLKAFVTSLPGQLQYECSGQGDDLSVGQKQLLCLARALLRKTQILILDEATASVDPGTEIQMQAALERWFAQCTVLLIAHRLRSVMNCARVLVMDEGQVAESGSPAQLLAQKGLFYRLAQESGLA

Columns and labels:
[1] = substrate: CC(C)C[C@@H]1NC(=O)[C@@H](C(C)C)NC(=O)[C@@H]2CCCN2C(=O)[C@@H](CC(=O)O)NC(=O)[C@@H](Cc2c[nH]c3ccccc23)NC1=O; experiment: TP_TRANSPORTER: uptake in membrane vesicles from Mrp2-expressing Sf9 cells; assay type: functional, cell membranes, Membrane vesicle
[2] = substrate: CC(C)C[C@@H]1NC(=O)[C@@H](C(C)C)NC(=O)[C@@H]2CCCN2C(=O)[C@@H](CC(=O)O)NC(=O)[C@@H](Cc2c[nH]c3ccccc23)NC1=O; experiment: TP_TRANSPORTER: uptake in membrane vesicle from Mrp6-expressing Sf9 cells; assay type: functional, cell membranes

Protein	Km [1]	Km [2]
B1	124 µM	
B2		17 µM
